# Measured values published in PMC5735849.
# T1: NP (ΔNPNTD) NTD (Zaire ebolavirus), P18272
# T1 chain: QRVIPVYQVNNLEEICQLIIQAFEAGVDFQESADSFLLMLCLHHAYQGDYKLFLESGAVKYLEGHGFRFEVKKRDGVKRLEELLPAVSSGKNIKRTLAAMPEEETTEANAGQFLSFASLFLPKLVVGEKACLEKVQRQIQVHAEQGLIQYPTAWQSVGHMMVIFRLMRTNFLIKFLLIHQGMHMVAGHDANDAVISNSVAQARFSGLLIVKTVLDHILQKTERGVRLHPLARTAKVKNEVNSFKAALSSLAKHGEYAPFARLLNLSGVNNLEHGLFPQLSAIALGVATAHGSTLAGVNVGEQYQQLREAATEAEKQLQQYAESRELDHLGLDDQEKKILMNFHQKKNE
# How the values were obtained:
# [1] = biological target: T1, NP (ΔNPNTD) NTD (Zaire ebolavirus), …; conditions: modification not given
# [2] = biological target: T1, NP (ΔNPNTD) NTD (Zaire ebolavirus), …; assay: competition; conditions: modification not given
binder,measurement,setting,value
"MPGPELSGWISEQLMTGRIPVSDIFCDIE [VP35 NPBP 20-48, Q05127]",Kd,[1],32 nM
same,IC50,[2],262 nM
